Measurements from patent US9534237B2, “Sesquiterpene synthase gene and protein” (University of Kentucky Research Foundation, priority 2003, dated 2017).
Several values for one entry are separate records, joined by “and”; a condition that tells them apart may be missing. Equal entries are not always repeated.

Columns and labels:
[1] = Terpene synthase reaction product identification by GC-MS (incubation with FPP at pH 7.5); assay type: biochemical
Protocol: Partially purified protein was subsequently incubated with FPP at pH 7.5 using typical sesquiterpene synthase reaction conditions and the pentane extractable products examined by GC-MS (FIG. 7). Two compounds accounting for greater than 95% of the total reaction products dominated the GC profiles and were identified as beta-elemene (30%) and valencene (65%) on the basis of MS matches with authentic standards. The beta-elemene peak most certainly represents a thermal rearrangement product of germacrene A resulting from high temperature injection into the GC.
Small scale reactions of 50 μL were used for screening purposes and rate determinations. Reactions typically contained 200 mM Tris-HCl, pH 7.5, 40 mM MgCl2, 0.5 μCi [1-3H]FPP, 25-30 μM FPP and 160 nM enzyme. For kinetic determinations, 10 μL aliquots of FPP (giving final concentrations of 0.7-23 μM) were rapidly mixed with 40 μL of enzyme solution at room temperature (23° C.) and allowed to incubate for 1 minute. The reactions were terminated by addition of 150 μL, of a 100 mM KOH, 0.5 M EDTA stop solution. Reactions were extracted with 500 μL of hexane and an aliquot was taken for determination of radiolabeled hydrophobic product via liquid scintillation counting. Hexane extracted samples were not subject to silica chromatography prior to counting because background was minimal and synthase mutants could possibly produce reaction products containing alcohols, which would bind to silica. Kinetic constants were determined from direct fits of the Michaelis-Menton equation to the data using Graphpad Prism 2.01 software.
Initial synthase reaction products were examined by GC-MS. […] Pooled extracts were dried to 50 μL under a stream of nitrogen gas and 1 μL aliquots of this organic extract were analyzed by GC-MS using an HP-GCDplus (Hewlett-Packard, Palo Alto, Calif.) equipped with a DB-5 ms column, an injector temperature of 250° C. and the mass selective detector set to scan for ions within the range from 45 to 250 m/z. […]

[2] = pH dependence assay of reaction product specificity (GC-MS); assay type: biochemical
Protocol: Reactions to determine pH dependence were performed in glass GC-vials with 100 nM of purified enzyme, 20 mM MgCl2, 50 μM FPP (Echelon; Salt Lake City, Utah), and 100 mM buffer at various pH values; total reaction volume 500 μL. The buffers were chosen within one pH unit of the buffer's pKa (pH 5-5.5, acetate; pH 6-7, MES; pH 7.5-9, Tris; pH 9.5-10, ethanolamine; pH 10.5, CAPS). Reactions were allowed to proceed at room temperature for 30 min prior to overlaying with 500 μL of ethylacetate, vortexing for 10 sec, then direct analysis of the reaction products using an HP 6890 gas chromatograph with a 5973 mass spectrometer (Agilent Technologies, Palo Alto, Calif.) with an auto-sampler programmed to remove […] only from the organic phase. GC separations were performed on a 5%-phenyl-methylpolysiloxane column (J&M Scientific, Folsom, Calif.) of 30 m×0.25 mm i.d.×[…] with He as the carrier gas at 2 mL/min and a temperature gradient of 10° C./min from 50° C. (5-min hold) to 180° C. (4-min hold). GC/MS data was analyzed using HP-Chemstation software (version B.01.00) and integration of terpene peaks used for quantification.

[3] = partially purified protein incubated with FPP at pH 7.5, pentane extractable products, GC-MS

B1: CVS: citrus valencene synthase from Citrus paradisi, recombinant His-tagged protein expressed in E. coli, SEQ ID NO.: 4 (protein)
chain: MSSGETFRPTADFHPSLWRNHFLKGASDFKTVDHTATQERHEALKEEVRRMITDAEDKPVQKLRLIDEVQRLGVAYHFEKEIEDAILKLCPIYIDSNRADLHTVSLHFRLLRQQGIKISCDVFEKFKDDEGRFKSSLINDVQGMLSLYEAAYMAVRGEHILDEAIAFTTTHLKSLVAQDHVTPKLAEQINHALYRPLRKTLPRLEARYFMSMINSTSDHLYNKTLLNFAKLDFNILLEPHKEELNELTKWWKDLDFTTKLPYARDRLVELYFWDLGTYFEPQYAFGRKIMTQLNYILSIIDDTYDAYGTLEELSLFTEAVQRWNIEAVDMLPEYMKLIYRTLLDAFNEIEEDMAKQGRSHCVRYAKEENQKVIGAYSVQAKWFSEGYVPTIEEYMPIALTSCAYTFVITNSFLGMGDFATKEVFEWISNNPKVVKAASVICRLMDDMQGHEFEQKRGHVASAIECYTKQHGVSKEEAIKMFEEEVANAWKDINEELMMKPTVVARPLLGTILNLARAIDFIYKEDDGYTHSYLIKDQIASVLGDHVPF
modifications: His tag; Citrus X paradisi
For B1, the “beta-elemene plus valencene as share of total reaction products” value ([1]; pH 7.5, GC profiles) was “greater than 95%”, the “beta-elemene (thermal rearrangement product of germacrene A) as share of total reaction products” value [1, 3] was 30% and the “valencene as share of total reaction products” value [1, 3] was 65%. The “pH of transition from valencene to germacrene A as dominant reaction product” value ([2]; FIG. 10) was 8.0 pH and ~8.2 pH, the “pH of optimal germacrene A biosynthesis” value ([2]; FIG. 10, FPP substrate) was 8.5 pH and the “pH of optimal valencene biosynthesis” value ([2]; FIG. 10, FPP substrate) was 7.0 pH. The “valencene plus germacrene A (measured as β-elemene) as share of total reaction products” value ([2]; at all pHs, ethylacetate extracts, GC-MS) was “greater than 95%” and the “germacrene A as reaction product” value ([2]; between pH 6.0 to 7.0) was “virtually no germacrene A was detected”.
